Results on one molecule are retold here after patent US20030207263, “Method of screening therapeutic agents” (published 2003).

One series concerns the target GST-Smad2 full length (UniProt Q15796 Q15796:1-467). Nature of the series: EMSA. The note with it: tags: GST, E. coli; label: 33P.
The target of a further series is Smad2 (Homo sapiens, UniProt Q15796 Q15796:1-467). Nature of the series: EMSA. Particulars: label: 33P.
A further series deals with GST-Smad1 full length (UniProt Q15797 Q15797:1-465). Nature of the series: EMSA. Particulars: tags: GST, E. coli; label: 33P.
GST-Smad1 full length, sequence (Q15797 whole entry, the tested form may be a part, one chain of several): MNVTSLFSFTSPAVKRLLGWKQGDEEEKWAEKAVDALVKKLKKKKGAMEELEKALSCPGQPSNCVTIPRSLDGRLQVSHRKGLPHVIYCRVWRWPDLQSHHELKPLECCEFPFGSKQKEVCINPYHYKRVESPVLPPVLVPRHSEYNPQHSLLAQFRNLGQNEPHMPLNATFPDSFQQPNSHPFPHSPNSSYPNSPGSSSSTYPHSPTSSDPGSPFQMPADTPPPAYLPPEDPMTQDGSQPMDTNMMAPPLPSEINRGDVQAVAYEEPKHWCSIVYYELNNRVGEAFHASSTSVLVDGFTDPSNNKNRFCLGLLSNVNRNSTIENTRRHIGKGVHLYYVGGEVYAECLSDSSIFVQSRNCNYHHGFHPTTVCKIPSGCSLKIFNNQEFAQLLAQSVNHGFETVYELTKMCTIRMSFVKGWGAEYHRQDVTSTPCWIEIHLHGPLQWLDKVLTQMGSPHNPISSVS
The next series addresses Smad3 (Homo sapiens, UniProt P84022 P84022:1-425). The experiment in a line: EMSA; not fused to GST. The note with it: label: 33P.
Another series has as its target GST-Smad4 full length (UniProt Q13485 Q13485:1-552). The experiment in a line: EMSA; direct and specific. The note with it: tags: GST, E. coli; label: 33P.

GST-Smad4 full length, sequence (Q13485 whole entry, one chain of several): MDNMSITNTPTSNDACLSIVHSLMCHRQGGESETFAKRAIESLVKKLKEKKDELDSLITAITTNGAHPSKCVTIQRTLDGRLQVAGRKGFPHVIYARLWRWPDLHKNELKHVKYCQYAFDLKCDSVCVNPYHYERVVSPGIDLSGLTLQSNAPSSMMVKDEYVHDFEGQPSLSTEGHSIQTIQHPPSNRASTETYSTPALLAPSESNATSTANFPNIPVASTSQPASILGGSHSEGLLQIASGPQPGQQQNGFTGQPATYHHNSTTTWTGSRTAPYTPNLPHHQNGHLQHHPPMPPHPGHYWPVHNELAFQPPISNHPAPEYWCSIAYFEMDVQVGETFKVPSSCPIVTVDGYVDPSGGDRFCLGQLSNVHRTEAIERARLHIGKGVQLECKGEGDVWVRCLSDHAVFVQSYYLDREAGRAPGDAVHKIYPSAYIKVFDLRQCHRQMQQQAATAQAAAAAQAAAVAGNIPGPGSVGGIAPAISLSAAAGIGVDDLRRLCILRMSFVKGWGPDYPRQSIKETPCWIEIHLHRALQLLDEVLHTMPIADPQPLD
GST-Smad2 full length, sequence (Q15796 whole entry, one chain of several): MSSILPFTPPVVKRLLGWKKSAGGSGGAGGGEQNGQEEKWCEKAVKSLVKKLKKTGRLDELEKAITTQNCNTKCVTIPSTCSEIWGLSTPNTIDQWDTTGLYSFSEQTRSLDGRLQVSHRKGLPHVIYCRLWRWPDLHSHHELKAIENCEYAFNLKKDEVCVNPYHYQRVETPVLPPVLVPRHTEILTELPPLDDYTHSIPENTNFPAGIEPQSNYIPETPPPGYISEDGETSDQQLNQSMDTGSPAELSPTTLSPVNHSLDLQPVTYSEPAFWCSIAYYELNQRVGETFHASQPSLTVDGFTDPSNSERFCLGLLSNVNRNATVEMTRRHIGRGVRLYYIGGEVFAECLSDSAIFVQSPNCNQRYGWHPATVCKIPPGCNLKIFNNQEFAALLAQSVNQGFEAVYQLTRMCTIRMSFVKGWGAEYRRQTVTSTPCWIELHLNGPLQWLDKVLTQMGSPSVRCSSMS
Smad2, sequence (Q15796 whole entry, one chain of several): as above
Smad3, sequence (P84022 whole entry, the tested form may be a part, one chain of several): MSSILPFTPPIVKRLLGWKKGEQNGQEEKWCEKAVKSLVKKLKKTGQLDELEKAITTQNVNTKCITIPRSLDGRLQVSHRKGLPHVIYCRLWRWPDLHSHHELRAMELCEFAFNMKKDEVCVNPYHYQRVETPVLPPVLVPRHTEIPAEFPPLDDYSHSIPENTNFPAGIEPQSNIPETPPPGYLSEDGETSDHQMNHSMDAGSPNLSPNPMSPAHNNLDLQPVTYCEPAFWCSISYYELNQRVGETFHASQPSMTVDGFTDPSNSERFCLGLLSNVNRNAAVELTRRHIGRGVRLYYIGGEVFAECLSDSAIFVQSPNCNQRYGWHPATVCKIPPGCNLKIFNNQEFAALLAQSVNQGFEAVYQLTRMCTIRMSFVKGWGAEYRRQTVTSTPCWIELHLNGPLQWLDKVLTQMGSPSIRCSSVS

B1: CAGA probe (dsDNA)
DNA 1: TCGAGAGCCAGACAAGGAGCCAGACAAGGAGCCAGACAC
DNA 2: GTGTCTGGCTCCTTGTCTGGCTCCTTGTCTGGCTCTCGA
Consider B1, for which the binding result with GST-Smad2 full length is “no binding”; in the series with Smad2, “no binding”; in the series with GST-Smad1 full length, “no binding”; with Smad3, “binds”; in the series with GST-Smad4 full length it was “binds”.
